Measurements published in US12679878B2, “CRF2 receptor agonists and their use in therapy” (SANOFI, priority 2020, dated 2026).
Starred links: 1 amine or outer side, 2 acyl side, 3 side chain; linkers in the order of their positions; H or OH if unused. Non-standard residues stand in square brackets, D forms with d. Groups on a side chain read outwards from the residue. No end group written: not given here. *: point of attachment. C18 diacid = O=C(O)CCCCCCCCCCCCCCCCC(=O)*; γGlu = O=C(O)[C@H](CCC(=O)[*:2])N[*:1]; Palmitoyl = CCCCCCCCCCCCCCCC(=O)*; AEEA = NCCOCCOCC(=O)O; Aib = CC(C)(N)C(=O)O

T1: CRF1R receptor (anti-target) (UniProt P34998 24-415, limits assumed)
T1 sequence (looked up): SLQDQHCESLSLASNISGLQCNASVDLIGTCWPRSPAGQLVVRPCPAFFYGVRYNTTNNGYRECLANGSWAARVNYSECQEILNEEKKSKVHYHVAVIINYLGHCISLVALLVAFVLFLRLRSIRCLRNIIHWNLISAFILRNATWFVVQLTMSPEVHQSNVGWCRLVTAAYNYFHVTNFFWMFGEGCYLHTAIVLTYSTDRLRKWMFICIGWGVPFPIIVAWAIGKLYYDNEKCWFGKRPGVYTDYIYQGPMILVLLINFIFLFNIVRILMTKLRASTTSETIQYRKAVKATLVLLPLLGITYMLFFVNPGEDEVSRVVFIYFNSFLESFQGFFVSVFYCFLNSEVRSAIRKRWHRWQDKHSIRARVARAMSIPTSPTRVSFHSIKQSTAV


What follows are binders tested against T1, CRF1R receptor (anti-target) (assay: cell-based or functional assay).

EC50 [nM] 0% HSA (cAMP, HTRF) [nM] | Emax (%) (100% = Sauvagine at 100 nM) | Binder
> 100 | 18.4 | IVLSLD[dV]PTKLK([γGlu-Palmitoyl])KKLLKQERKRKERE[Aib]AEKAARILERV-NH2 (N-terminus assumed; SMILES CCCCCCCCCCCCCCCC(=O)N[C@@H](CCC(=O)NCCCC[C@H](NC(=O)[C@H](CC(C)C)NC(=O)[C@H](CCCCN)NC(=O)[C@@H](NC(=O)[C@@H]1CCCN1C(=O)[C@H](NC(=O)[C@H](CC(=O)O)NC(=O)[C@H](CC(C)C)NC(=O)[C@H](CO)NC(=O)[C@H](CC(C)C)NC(=O)[C@@H](NC(=O)[C@@H](N)[C@@H](C)CC)C(C)C)C(C)C)[C@@H](C)O)C(=O)N[C@@H](CCCCN)C(=O)N[C@@H](CCCCN)C(=O)N[C@@H](CC(C)C)C(=O)N[C@@H](CC(C)C)C(=O)N[C@@H](CCCCN)C(=O)N[C@@H](CCC(N)=O)C(=O)N[C@@H](CCC(=O)O)C(=O)N[C@@H](CCCNC(=N)N)C(=O)N[C@@H](CCCCN)C(=O)N[C@@H](CCCNC(=N)N)C(=O)N[C@@H](CCCCN)C(=O)N[C@@H](CCC(=O)O)C(=O)N[C@@H](CCCNC(=N)N)C(=O)N[C@@H](CCC(=O)O)C(=O)NC(C)(C)C(=O)N[C@@H](C)C(=O)N[C@@H](CCC(=O)O)C(=O)N[C@@H](CCCCN)C(=O)N[C@@H](C)C(=O)N[C@@H](C)C(=O)N[C@@H](CCCNC(=N)N)C(=O)N[C@H](C(=O)N[C@@H](CC(C)C)C(=O)N[C@@H](CCC(=O)O)C(=O)N[C@@H](CCCNC(=N)N)C(=O)N[C@H](C(N)=O)C(C)C)[C@@H](C)CC)C(=O)O) [peptide of SEQ ID NO: 29]
> 100 | 14.5 | IVLSLD[dV]PTKLK([γGlu-Palmitoyl])KKLLKQERKRKEREQAEKAARILERV-NH2 (N-terminus assumed; SMILES CCCCCCCCCCCCCCCC(=O)N[C@@H](CCC(=O)NCCCC[C@H](NC(=O)[C@H](CC(C)C)NC(=O)[C@H](CCCCN)NC(=O)[C@@H](NC(=O)[C@@H]1CCCN1C(=O)[C@H](NC(=O)[C@H](CC(=O)O)NC(=O)[C@H](CC(C)C)NC(=O)[C@H](CO)NC(=O)[C@H](CC(C)C)NC(=O)[C@@H](NC(=O)[C@@H](N)[C@@H](C)CC)C(C)C)C(C)C)[C@@H](C)O)C(=O)N[C@@H](CCCCN)C(=O)N[C@@H](CCCCN)C(=O)N[C@@H](CC(C)C)C(=O)N[C@@H](CC(C)C)C(=O)N[C@@H](CCCCN)C(=O)N[C@@H](CCC(N)=O)C(=O)N[C@@H](CCC(=O)O)C(=O)N[C@@H](CCCNC(=N)N)C(=O)N[C@@H](CCCCN)C(=O)N[C@@H](CCCNC(=N)N)C(=O)N[C@@H](CCCCN)C(=O)N[C@@H](CCC(=O)O)C(=O)N[C@@H](CCCNC(=N)N)C(=O)N[C@@H](CCC(=O)O)C(=O)N[C@@H](CCC(N)=O)C(=O)N[C@@H](C)C(=O)N[C@@H](CCC(=O)O)C(=O)N[C@@H](CCCCN)C(=O)N[C@@H](C)C(=O)N[C@@H](C)C(=O)N[C@@H](CCCNC(=N)N)C(=O)N[C@H](C(=O)N[C@@H](CC(C)C)C(=O)N[C@@H](CCC(=O)O)C(=O)N[C@@H](CCCNC(=N)N)C(=O)N[C@H](C(N)=O)C(C)C)[C@@H](C)CC)C(=O)O) [peptide of SEQ ID NO: 30]
> 100 | 2.3 | IVLSLDVPIKLK([AEEA-AEEA-γGlu-C18 diacid])QILLKQERQKKQREKAKTN[Aib]QILAQV-NH2 (N-terminus assumed; SMILES CC[C@H](C)[C@H](N)C(=O)N[C@H](C(=O)N[C@@H](CC(C)C)C(=O)N[C@@H](CO)C(=O)N[C@@H](CC(C)C)C(=O)N[C@@H](CC(=O)O)C(=O)N[C@H](C(=O)N1CCC[C@H]1C(=O)N[C@H](C(=O)N[C@@H](CCCCN)C(=O)N[C@@H](CC(C)C)C(=O)N[C@@H](CCCCNC(=O)COCCOCCNC(=O)COCCOCCNC(=O)CC[C@H](NC(=O)CCCCCCCCCCCCCCCCC(=O)O)C(=O)O)C(=O)N[C@@H](CCC(N)=O)C(=O)N[C@H](C(=O)N[C@@H](CC(C)C)C(=O)N[C@@H](CC(C)C)C(=O)N[C@@H](CCCCN)C(=O)N[C@@H](CCC(N)=O)C(=O)N[C@@H](CCC(=O)O)C(=O)N[C@@H](CCCNC(=N)N)C(=O)N[C@@H](CCC(N)=O)C(=O)N[C@@H](CCCCN)C(=O)N[C@@H](CCCCN)C(=O)N[C@@H](CCC(N)=O)C(=O)N[C@@H](CCCNC(=N)N)C(=O)N[C@@H](CCC(=O)O)C(=O)N[C@@H](CCCCN)C(=O)N[C@@H](C)C(=O)N[C@@H](CCCCN)C(=O)N[C@H](C(=O)N[C@@H](CC(N)=O)C(=O)NC(C)(C)C(=O)N[C@@H](CCC(N)=O)C(=O)N[C@H](C(=O)N[C@@H](CC(C)C)C(=O)N[C@@H](C)C(=O)N[C@@H](CCC(N)=O)C(=O)N[C@H](C(N)=O)C(C)C)[C@@H](C)CC)[C@@H](C)O)[C@@H](C)CC)[C@@H](C)CC)C(C)C)C(C)C) [peptide of SEQ ID NO: 88]
> 100 | 34.2 | IVLSLD[dV]PTKLK([γGlu-Palmitoyl])KKLLKQERKRKEREQAEKNARILERV-NH2 (N-terminus assumed; SMILES CCCCCCCCCCCCCCCC(=O)N[C@@H](CCC(=O)NCCCC[C@H](NC(=O)[C@H](CC(C)C)NC(=O)[C@H](CCCCN)NC(=O)[C@@H](NC(=O)[C@@H]1CCCN1C(=O)[C@H](NC(=O)[C@H](CC(=O)O)NC(=O)[C@H](CC(C)C)NC(=O)[C@H](CO)NC(=O)[C@H](CC(C)C)NC(=O)[C@@H](NC(=O)[C@@H](N)[C@@H](C)CC)C(C)C)C(C)C)[C@@H](C)O)C(=O)N[C@@H](CCCCN)C(=O)N[C@@H](CCCCN)C(=O)N[C@@H](CC(C)C)C(=O)N[C@@H](CC(C)C)C(=O)N[C@@H](CCCCN)C(=O)N[C@@H](CCC(N)=O)C(=O)N[C@@H](CCC(=O)O)C(=O)N[C@@H](CCCNC(=N)N)C(=O)N[C@@H](CCCCN)C(=O)N[C@@H](CCCNC(=N)N)C(=O)N[C@@H](CCCCN)C(=O)N[C@@H](CCC(=O)O)C(=O)N[C@@H](CCCNC(=N)N)C(=O)N[C@@H](CCC(=O)O)C(=O)N[C@@H](CCC(N)=O)C(=O)N[C@@H](C)C(=O)N[C@@H](CCC(=O)O)C(=O)N[C@@H](CCCCN)C(=O)N[C@@H](CC(N)=O)C(=O)N[C@@H](C)C(=O)N[C@@H](CCCNC(=N)N)C(=O)N[C@H](C(=O)N[C@@H](CC(C)C)C(=O)N[C@@H](CCC(=O)O)C(=O)N[C@@H](CCCNC(=N)N)C(=O)N[C@H](C(N)=O)C(C)C)[C@@H](C)CC)C(=O)O) [peptide of SEQ ID NO: 27]
> 100 | 0.6 | IVLSLD[dV]PTKLK([γGlu-Palmitoyl])KKLLKQERKRKERE[Aib]AEKNARILERV-NH2 (N-terminus assumed; SMILES CCCCCCCCCCCCCCCC(=O)N[C@@H](CCC(=O)NCCCC[C@H](NC(=O)[C@H](CC(C)C)NC(=O)[C@H](CCCCN)NC(=O)[C@@H](NC(=O)[C@@H]1CCCN1C(=O)[C@H](NC(=O)[C@H](CC(=O)O)NC(=O)[C@H](CC(C)C)NC(=O)[C@H](CO)NC(=O)[C@H](CC(C)C)NC(=O)[C@@H](NC(=O)[C@@H](N)[C@@H](C)CC)C(C)C)C(C)C)[C@@H](C)O)C(=O)N[C@@H](CCCCN)C(=O)N[C@@H](CCCCN)C(=O)N[C@@H](CC(C)C)C(=O)N[C@@H](CC(C)C)C(=O)N[C@@H](CCCCN)C(=O)N[C@@H](CCC(N)=O)C(=O)N[C@@H](CCC(=O)O)C(=O)N[C@@H](CCCNC(=N)N)C(=O)N[C@@H](CCCCN)C(=O)N[C@@H](CCCNC(=N)N)C(=O)N[C@@H](CCCCN)C(=O)N[C@@H](CCC(=O)O)C(=O)N[C@@H](CCCNC(=N)N)C(=O)N[C@@H](CCC(=O)O)C(=O)NC(C)(C)C(=O)N[C@@H](C)C(=O)N[C@@H](CCC(=O)O)C(=O)N[C@@H](CCCCN)C(=O)N[C@@H](CC(N)=O)C(=O)N[C@@H](C)C(=O)N[C@@H](CCCNC(=N)N)C(=O)N[C@H](C(=O)N[C@@H](CC(C)C)C(=O)N[C@@H](CCC(=O)O)C(=O)N[C@@H](CCCNC(=N)N)C(=O)N[C@H](C(N)=O)C(C)C)[C@@H](C)CC)C(=O)O) [peptide of SEQ ID NO: 26]
> 100 | 8.4 | IVLSLD[dV]PTKLK([γGlu-Palmitoyl])KKLLKQERKRKEREKAEKAARILERV-NH2 (N-terminus assumed; SMILES CCCCCCCCCCCCCCCC(=O)N[C@@H](CCC(=O)NCCCC[C@H](NC(=O)[C@H](CC(C)C)NC(=O)[C@H](CCCCN)NC(=O)[C@@H](NC(=O)[C@@H]1CCCN1C(=O)[C@H](NC(=O)[C@H](CC(=O)O)NC(=O)[C@H](CC(C)C)NC(=O)[C@H](CO)NC(=O)[C@H](CC(C)C)NC(=O)[C@@H](NC(=O)[C@@H](N)[C@@H](C)CC)C(C)C)C(C)C)[C@@H](C)O)C(=O)N[C@@H](CCCCN)C(=O)N[C@@H](CCCCN)C(=O)N[C@@H](CC(C)C)C(=O)N[C@@H](CC(C)C)C(=O)N[C@@H](CCCCN)C(=O)N[C@@H](CCC(N)=O)C(=O)N[C@@H](CCC(=O)O)C(=O)N[C@@H](CCCNC(=N)N)C(=O)N[C@@H](CCCCN)C(=O)N[C@@H](CCCNC(=N)N)C(=O)N[C@@H](CCCCN)C(=O)N[C@@H](CCC(=O)O)C(=O)N[C@@H](CCCNC(=N)N)C(=O)N[C@@H](CCC(=O)O)C(=O)N[C@@H](CCCCN)C(=O)N[C@@H](C)C(=O)N[C@@H](CCC(=O)O)C(=O)N[C@@H](CCCCN)C(=O)N[C@@H](C)C(=O)N[C@@H](C)C(=O)N[C@@H](CCCNC(=N)N)C(=O)N[C@H](C(=O)N[C@@H](CC(C)C)C(=O)N[C@@H](CCC(=O)O)C(=O)N[C@@H](CCCNC(=N)N)C(=O)N[C@H](C(N)=O)C(C)C)[C@@H](C)CC)C(=O)O) [peptide of SEQ ID NO: 28]
